Laboratory results published in JP2023092810A (dated 2023).

Biological target: プロテインA (rProtein A Sepharose Fast Flow) (UniProt P38507 37-327)
Assay: rProtein A Sepharose Fast Flow column, fractions on SDS-PAGE

B1: OKT3 scFv (scFv, V domains shown)
VH: QVQLVQSGGGVVQPGRSLRLSCKASGYTFTRYTMHWVRQAPGKGLEWIGYINPSRGYTNYNQKVKDRFTISRDNSKNTAFLQMDSLRPEDTGVYFCARYYDDHYSLDYWGQGTPVTVSS
notes: Made in E. coli; also called OKT3 scFv(コントロール); 変異導入前のOKT3 scFv; not shown: linker, VL of OKT3 (OL) and any tag
- binding result: no binding

B2: OKT3 scFv-D65N/D82aN (scFv, name in Kabat numbering, V domains shown)
VH: QVQLVQSGGGVVQPGRSLRLSCKASGYTFTRYTMHWVRQAPGKGLEWIGYINPSRGYTNYNQKVKNRFTISRDNSKNTAFLQMNSLRPEDTGVYFCARYYDDHYSLDYWGQGTPVTVSS
notes: not shown: linker, VL of OKT3 (OL) and any tag
- binding result: no binding

B3: OKT3 scFv-D65A/D82aN (scFv, name in Kabat numbering, V domains shown)
VH: QVQLVQSGGGVVQPGRSLRLSCKASGYTFTRYTMHWVRQAPGKGLEWIGYINPSRGYTNYNQKVKARFTISRDNSKNTAFLQMNSLRPEDTGVYFCARYYDDHYSLDYWGQGTPVTVSS
notes: as for B2
- binding result: no binding
